The text below walks through data of paper PMC10904854, “A druggable conformational switch in the c-MYC transactivation domain” (Nature Communications, 2024).

As a reminder, the stoichiometry N is the number of molecules, sites or subunits per partner or assembly.

Test [1] addresses T1, TRRAP_(2038-2087) synthetic peptide (N-terminal acetyl (Ac-), C-terminal amide (-NH2)).
T1 construct: transformation/transcription domain-associated protein (TRRAP), residues 2038-2087; also called TRRAP peptide; source: synthetic peptide (GenScript)
T1 peptide: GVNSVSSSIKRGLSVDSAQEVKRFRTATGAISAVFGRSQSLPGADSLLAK
Briefly: native MS; equimolar mixture, 15.5 uM coreMYC and 15 uM TRRAP_(2038-2087) peptide in 100 mM ammonium acetate, no EGCG, sample cone 10 V. The settings on record: both partners purified.

Test [2] addresses T2, Recombinant human TATA binding protein (ab81897, Abcam) (human).
T2 construct: also called TBP; full-length, human TBP; source: bought: Abcam (ab81897)
T2 chain: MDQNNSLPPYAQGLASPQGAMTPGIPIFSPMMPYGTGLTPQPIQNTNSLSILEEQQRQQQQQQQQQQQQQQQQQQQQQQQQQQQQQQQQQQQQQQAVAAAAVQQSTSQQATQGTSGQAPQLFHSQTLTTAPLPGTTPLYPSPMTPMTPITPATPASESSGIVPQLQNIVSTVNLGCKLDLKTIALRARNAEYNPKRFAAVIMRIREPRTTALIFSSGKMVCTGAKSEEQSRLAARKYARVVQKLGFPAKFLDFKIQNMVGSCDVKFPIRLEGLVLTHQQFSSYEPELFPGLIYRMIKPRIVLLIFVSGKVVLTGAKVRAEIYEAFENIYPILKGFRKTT
In words: native MS; mixture of coreMYC (6) and full-length TBP (10; concentrations printed as mM), ammonium acetate (TBP exchanged into 1 M), no EGCG, sample cone 50 V. The following applies: both partners purified.

B1: MGHis6-coreMYC (c-MYC residues 101-150) (peptide)
chain: MVTELLGGDMVNQSFICDPDDETFIKNIIIQDCMWSGFSAAAKLVSEKLA
notes: c-MYC, residues 101-150 (coreMYC); Cloned into pET-26b(+); also called MYC_(101-150); COnformational REgulator of c-MYC; source: E. coli BL21 (DE3), purified in-house (solubilised from the pellet in urea, His SpinTrap column); not shown: MGHis6, N-terminal, kept
For B1, the “stoichiometry N” value in test [1] and in test [2] was 1 each time.
